B1: N-terminal part of rat agrin (Agrin-Nterm) (domain or fragment)
chain: RSDVCRGMLCGFGAVCEPSVEDPGRASCVCKKNACPATVAPVCGSDASTYSNECELQRAQCNQQRRIRLLRQGPCGSRDPCANVTCSFGSTCVPSADGQTASCLCPTTCFGAPDGTVCGSDGVDYPSECQLLSHACASQEHIFKKFNGPCDPCQGSMSDLNHICRVNPRTRHPEMLLRPENCPAQHTPICGDDGVTYENDCVMSRIGATRGLLLQKVRSGQCQTRDQCPETCQFNSVCLSRRGRPHCSCDRVTCDGSYRPVCAQDGHTYNNDCWRQQAECRQQRAIPPKHQGPCDQTPSPCHGVQCAFGAVCTVKNGKAECECQRVCSGIYDPVCGSDGVTYGSVCELESMACTLGREIQVARRGPCDPCGQCRFGSLCEVETGRCVCPSECVESAQPVCGSDGHTYASECELHVHACTHQISLYVASAGHCQTCGEKVCTFGAVCSAGQCVCPRCEHPPPGPVCGSDGVTYLSACELREAACQQQVQIEEAHAGPCEPAECGSGGSGSGEDDECEQELCRQRGGIWDEDSEDGPCVCDFSCQSVPRSPVCGSDGVTYGTECDLKKARCESQQELYVAAQGACRGPTLAPLLPVAFPHCAQTPYGCCQDNFTAAQGVGLAGCPSTCHCNPHGSYSGTCDPATGQCSCRPGVGGLRCDRCEPGFWNFRGIVTDGHSGCTPCSCDPRGAVRDDCEQMTGLCSCRPGVAGPKCGQCPDGQVLGHLGCEADPMTPVTCVEIHCEFGASCVEKAGFAQCICPTLTCPEANSTKVCGSDGVTYGNECQLKAIACRQRLDISTQSLGPCQ
modifications: glycosylation at multiple sites (proteoglycan smear on SDS-PAGE)
notes: not agrin residues; rat agrin, residues Asp65-Gln865, amplified from rat agrin cDNA NM_175754.1; numbers count on: the protein encoded by NM_175754.1; Calculated molecular mass of the recombinant protein 88,054 Da
B2: Mature human BMP2 (ligand, UniProt P12643 283-396, looked up)
chain: QAKHKQRKRLKSSCKRHPLYVDFSDVGWNDWIVAPPGYHAFYCHGECPFPLADHLNSTNHAIVQTLVNSVNSKIPKACCVPTELSAISMLYLDENEKVVLKNYQDMVVEGCGCR
notes: bone morphogenetic protein 2, human, mature growth factor; source: bought: R&D Systems
B3: Mature human BMP4 (ligand, UniProt P12644 293-408, looked up)
chain: SPKHHSQRARKKNKNCRRHSLYVDFSDVGWNDWIVAPPGYQAFYCHGDCPFPLADHLNSTNHAIVQTLVNSVNSSIPKACCVPTELSAISMLYLDEYDKVVLKNYQEMVVEGCGCR
notes: bone morphogenetic protein 4, human, mature growth factor; source: bought: R&D Systems

Assay [1] concerns the target Mature human TGFβ1 (human). Briefly: SPR; solution-competition: constant concentration of growth factor (40 nM BMP2, 40 nM BMP4 or 4 nM TGFβ1) preincubated 30 min at room temperature with increasing Agrin-Nterm, injected over immobilised ECD of the receptor (BMPR1A or TGF-βsRII) on CM5; 20 mM HEPES, 150 mM NaCl, 5 mM EDTA, 0.005% Tween 20, pH 7.5; 50% decrease in kobs by the method of Nieba et al. In general terms: Surface plasmon resonance follows binding to a sensor surface in real time, without labels.

Assay [2] has as its target Mature human TGFβ1 (human). Nature of the assay: SPR; BIAcore X; BMP2, BMP4 or TGFβ1 immobilised on CM5 chips by amine coupling, Agrin-Nterm injected at 20 µl/min; 20 mM HEPES, 150 mM NaCl, 5 mM EDTA, 0.005% Tween 20, pH 7.5; global fit, 1:1 Langmuir model.
The target in the assay “Mature human BMP4” is B3. Briefly: SPR; solution-competition: constant concentration of growth factor (40 nM BMP2, 40 nM BMP4 or 4 nM TGFβ1) preincubated 30 min at room temperature with increasing Agrin-Nterm, injected over immobilised ECD of the receptor (BMPR1A or TGF-βsRII) on CM5; 20 mM HEPES, 150 mM NaCl, 5 mM EDTA, 0.005% Tween 20, pH 7.5; 50% decrease in kobs by the method of Nieba et al. As to conditions: both partners purified.

The assay “Mature human BMP2” has as its target B2. The description is as above. As to conditions: both partners purified.
In assay [3] the target is B1. Briefly: SPR; BIAcore X; BMP2, BMP4 or TGFβ1 immobilised on CM5 chips by amine coupling, Agrin-Nterm injected at 20 µl/min; 20 mM HEPES, 150 mM NaCl, 5 mM EDTA, 0.005% Tween 20, pH 7.5; global fit, 1:1 Langmuir model. As to conditions: both partners purified.

This note sets out measurements from publication PMC2874008, “Agrin Binds BMP2, BMP4 and TGFβ1” (PLoS ONE, 2010).

Sequence of Mature human TGFβ1 (human) (P01137 279-390): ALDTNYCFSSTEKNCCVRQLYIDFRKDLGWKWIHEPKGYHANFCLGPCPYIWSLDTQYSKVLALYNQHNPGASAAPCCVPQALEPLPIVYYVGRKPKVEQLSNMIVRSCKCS

In general, IC50 refers to the concentration at which inhibition is half-maximal. A low value points to higher potency. What is called Kd is the free concentration of one partner at which half of the binding sites on the other are occupied at equilibrium, for simple one-to-one binding. A lower Kd goes with higher affinity. What is called koff is the rate constant with which the complex falls apart. A high value points to a short-lived complex. In general, kon refers to the second-order rate constant of association. Regarding B1, the IC50 in assay [1] stood at 2 µM. In assay [2], this molecule had a Kd of 0.0515 µM, a koff of 0.000172 s⁻¹ and a kon of 3340 M⁻¹ s⁻¹. In addition, in the assay with Mature human BMP4, the IC50 is 0.345 µM. In the assay with Mature human BMP2, this molecule came in with an IC50 of 0.012 µM.
In assay [3], B2 registered a Kd of 0.262 µM, a koff of 0.000286 s⁻¹ and a kon of 1090 M⁻¹ s⁻¹.
B3: in assay [3], the Kd was determined as 0.257 µM, the koff came out at 0.000412 s⁻¹ and the kon stood at 1610 M⁻¹ s⁻¹.
